Among the data in article PMC8241133 are Kd values, retold here.

The data set deals with CD123 peptide epitope (24 aa, extracellular domain, disulfide between the two Cys) (UniProt P26951). In words: flow cytometry, peptide-coated magnetic beads. The settings on record: PBS (binding buffer), 37 °C, 30 min; BSA-bead signal subtracted for Kd; pH and salt not given.
Sequence of UniProt P26951 (P26951 whole entry, the tested form may be a part): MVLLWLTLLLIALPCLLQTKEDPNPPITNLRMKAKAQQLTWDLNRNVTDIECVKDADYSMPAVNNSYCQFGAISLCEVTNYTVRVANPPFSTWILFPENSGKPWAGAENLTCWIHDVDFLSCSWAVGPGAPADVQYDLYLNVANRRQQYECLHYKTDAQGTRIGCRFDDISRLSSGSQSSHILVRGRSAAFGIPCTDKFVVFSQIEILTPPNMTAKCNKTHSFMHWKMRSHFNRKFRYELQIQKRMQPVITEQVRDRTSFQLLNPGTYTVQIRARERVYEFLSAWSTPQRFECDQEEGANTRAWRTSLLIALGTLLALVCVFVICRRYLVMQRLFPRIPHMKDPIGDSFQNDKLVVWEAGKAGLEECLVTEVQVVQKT

Consider “TGCGTGTGTACTGTGTCTGGTCCCGTAGCTACTAGCGAACTCCCTGCCTCTTAGGGATTTGGGCGG [CY30]”, for which the equilibrium dissociation constant (Kd) worked out at 15.4 nM.
For the sequence “TGCGTGTGTAGTGTGTCTGGGCTACATCGATGAGCTGCCTAGGGTCCCTCTTAGGGATTTGGGCGG [ZW25]”, the equilibrium dissociation constant (Kd) turned out to be 29.4 nM.
